For one substance, complex half-life (min (half-life)) results are on record in patent publication US20050123944.

The data set deals with BamHI. The experiment in a line: EMSA. As to conditions: value is complex half-life, not a rate; 5 mM CaCl2, no Mg2+; 2 nM BamHI, 100 pM DNA, 6000-fold unlabeled competitor. Background: In EMSA bound probe runs differently from free probe, usually more slowly.

DNA duplex with single BamHI site: the complex half-life (min (half-life)) was 39600.
